Data on 1 molecule can be found in patent US20210087270A1.

Assay [1] has as its target human KIR3DL2 (CD158k), wild type, at the cell surface (human) (UniProt P43630). As to the kind of experiment: flow cytometry, concentration-response binding of PE-labelled IPH4102 on primary Sezary tumor cells. Background: Flow cytometry measures light scatter and fluorescence of single cells or particles in a stream.
Assay [2] deals with recombinant human KIR3DL2 protein (human) (UniProt P43630). As to the kind of experiment: SPR (Biacore), bivalent binding, N = 1. (In general: Surface plasmon resonance follows binding to a sensor surface in real time, without labels.)
For assay [3] the target is unchanged. As to the kind of experiment: SPR (Biacore), bivalent binding, mean of three.
Assay [4] has the same target. The experiment in a line: SPR (Biacore), average bivalent binding affinity to recombinant KIR3DL2.
For assay [5], the target named is human KIR3DL2 (CD158k), wild type, at the cell surface (human) (UniProt P43630). As to the kind of experiment: flow cytometry, concentration-response binding of PE-labelled IPH4102 on HuT78 Sezary cell line.
Chain of human KIR3DL2 (CD158k), wild type, at the cell surface (human) (P43630 22-455 E158D): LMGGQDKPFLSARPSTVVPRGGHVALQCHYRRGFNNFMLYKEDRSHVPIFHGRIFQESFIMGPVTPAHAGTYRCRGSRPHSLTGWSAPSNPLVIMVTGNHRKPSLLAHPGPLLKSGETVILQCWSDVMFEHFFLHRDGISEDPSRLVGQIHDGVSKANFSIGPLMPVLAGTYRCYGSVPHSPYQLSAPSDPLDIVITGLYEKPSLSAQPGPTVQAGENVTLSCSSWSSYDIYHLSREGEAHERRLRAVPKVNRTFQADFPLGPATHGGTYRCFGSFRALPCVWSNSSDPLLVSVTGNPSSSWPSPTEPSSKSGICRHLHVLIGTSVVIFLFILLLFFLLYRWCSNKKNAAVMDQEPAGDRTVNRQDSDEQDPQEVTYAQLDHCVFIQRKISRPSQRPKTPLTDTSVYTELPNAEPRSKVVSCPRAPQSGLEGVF
Assay [6] has the same target. The experiment in a line: flow cytometry, concentration-response binding of PE-labelled IPH4102 on COU-L Sezary cell line.
Assay [7] deals with recombinant human KIR3DL2 protein (human) (UniProt P43630). As to the kind of experiment: SPR (Biacore), mean off-rate for bivalent binding converted to per hour.
Assay [8] deals with human KIR3DL2 (CD158k), wild type, at the cell surface (human) (UniProt P43630). As to the kind of experiment: cell-based or functional assay.
The target is the same in assay [9]. The experiment in a line: PK/PD model parameter 'Binding affinity', set from the filing's flow cytometry titration of IPH4102 on KIR3DL2-positive cells (EC50 about 0.07 ug/mL); not a separate kinetic measurement.
The target in assay [10] is recombinant human KIR3DL2 protein (human) (UniProt P43630). The experiment in a line: SPR (Biacore), bivalent binding, N = 3.
Assay [11] shares this target. As to the kind of experiment: SPR (Biacore), bivalent binding, N = 2.

B1: IPH4102 (humanized 2B12 mAb, full-length human IgG1 anti-KIR3DL2 antibody) (antibody, from a related filing, V domains shown)
VH: QIQLVQSGSELKKPGASVKVSCKASGYTFTTAGMQWVRQAPGQGLEWIGWINSHSGVPKYAEDFKGRFVFSLDTSVSTAYLQISSLKAEDTAVYFCARGGDEGVMDYWGQGTTVTVSS
VL: DIQMTQSPSFLSASVGDRVTITCKASQDVSTAVAWYQQKPGQPPKLLIYWTSTRHTGVPDRFSGSGSGTDYTLTISSLQAEDVAVYYCQQHYSTPWTFGGGTKVEIK
Broadly, the EC50 is the concentration giving half of the maximal effect. Higher therefore signals a need for much substance. As usually defined, the koff is the rate constant with which the complex falls apart. By kon is commonly meant the rate constant with which the complex forms. B1: the 50% effective concentration (EC50) in assay [1] was determined as 0.07 µg/mL; in assay [5], 0.06 µg/mL; in assay [6] it was 0.087 µg/mL. For the same molecule, the Kd in assay [2] stood at 0.162 nM; in assay [3], 0.146 nM; in [4], 0.0219 µg/mL; in [9], 0.07 µg/mL; in assay [10], 0.144 nM; in [11] it was 0.131 nM. The koff in assay [2] was 0.000156 s⁻¹; in assay [3] it was 0.00014 s⁻¹; in assay [7], 0.00014 s⁻¹; in [10] it was 0.000139 s⁻¹; in [11], 0.000125 s⁻¹. Besides, the kon is 968000 M⁻¹ s⁻¹ in assay [2], 962000 M⁻¹ s⁻¹ in [3], 965000 M⁻¹ s⁻¹ in [10] and 953000 M⁻¹ s⁻¹ in assay [11]. This molecule also showed an EC50 in 51Cr-release assay HuT 78 tumor lysis by PBMC from healthy volunteers in [8] of 0.045 µg/mL. For the same molecule, the median EC10 in the 51Cr release assay (HuT78 tumor cell lysis by healthy donors' PBMC, NK cell lytic capacity) in assay [8] amounted to 0.002 µg/mL.
